Ends that are not written are not given here. * marks the point of attachment. Biotin = O=C1N[C@H]2[C@H](CS[C@H]2CCCCC(=O)*)N1
T1: GST-cytohesin binding protein PDZ domain fusion protein (Homo sapiens (Human), UniProt O60759 74-165)
T1 construct: also called CBP; not shown: glutathione S-transferase encoded by vector pGEX-3X (Pharmacia)
T1 sequence: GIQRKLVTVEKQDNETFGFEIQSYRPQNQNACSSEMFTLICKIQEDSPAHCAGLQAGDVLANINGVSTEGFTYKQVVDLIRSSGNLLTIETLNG

T2: K559 PDZ-GST fusion protein (Homo sapiens (Human), UniProt Q9Y6V0 4489-4593)
T2 construct: Order of GST and PDZ part and limits not seen in the excerpts
T2 sequence: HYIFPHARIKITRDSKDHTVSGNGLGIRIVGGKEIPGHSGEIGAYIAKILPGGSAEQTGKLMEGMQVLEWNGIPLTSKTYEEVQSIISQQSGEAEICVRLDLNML

T3: GST-TAX-IP2 PDZ domain fusion protein (human, UniProt O14908 129-216)
T3 construct: also called TAX-1P2; TAX2; not shown: glutathione S-transferase encoded by vector pGEX-3X (Pharmacia)
T3 chain: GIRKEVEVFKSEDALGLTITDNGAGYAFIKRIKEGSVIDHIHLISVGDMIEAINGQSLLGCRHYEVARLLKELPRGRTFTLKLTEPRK

T4: TAX-IP33 PDZ-GST fusion protein (Homo sapiens (Human), UniProt O14910 103-193)
T4 construct: Order of GST and PDZ part and limits not seen in the excerpts
T4 sequence: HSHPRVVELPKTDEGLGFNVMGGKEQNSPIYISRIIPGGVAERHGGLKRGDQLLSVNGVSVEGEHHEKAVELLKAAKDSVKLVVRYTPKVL

T5: SP short PDZ-GST fusion protein (Homo sapiens (Human), UniProt O43464 350-435)
T5 construct: The label SP short is not explained in the excerpts
T5 sequence: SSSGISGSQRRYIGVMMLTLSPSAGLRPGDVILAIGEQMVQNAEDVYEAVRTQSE

T6: GST-mouse syntenin fusion protein (Mus musculus, UniProt O08992 108-286)
T6 construct: also called Mus musculus Syntenin; not shown: glutathione S-transferase encoded by vector pGEX-3X (Pharmacia)
T6 chain: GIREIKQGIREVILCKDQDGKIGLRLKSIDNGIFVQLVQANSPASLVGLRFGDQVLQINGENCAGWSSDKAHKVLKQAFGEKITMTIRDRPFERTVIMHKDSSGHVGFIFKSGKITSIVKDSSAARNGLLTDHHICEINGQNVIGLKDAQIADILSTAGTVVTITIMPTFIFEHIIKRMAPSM

T7: GST-DVL1 PDZ domain fusion protein (human, UniProt O14640 247-339)
T7 construct: also called human dishevelled segment polarity protein homolog; not shown: glutathione S-transferase encoded by vector pGEX-3X (Pharmacia)
T7 sequence: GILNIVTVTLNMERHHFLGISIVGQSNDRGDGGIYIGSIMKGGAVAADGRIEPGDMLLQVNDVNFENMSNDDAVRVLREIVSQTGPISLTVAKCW

T8: GST-KIAA0303 PDZ domain fusion protein (Homo sapiens (Human), UniProt O15021 1138-1228)
T8 construct: also called K303; not shown: glutathione S-transferase encoded by vector pGEX-3X (Pharmacia)
T8 sequence: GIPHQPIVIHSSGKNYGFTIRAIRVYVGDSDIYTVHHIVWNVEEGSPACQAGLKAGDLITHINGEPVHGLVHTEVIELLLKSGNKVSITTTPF

T9: GST-LIM protein PDZ domain fusion protein (Human, UniProt Q96HC4 2-85)
T9 construct: also called Human LIM protein; not shown: glutathione S-transferase encoded by vector pGEX-3X (Pharmacia)
T9 sequence: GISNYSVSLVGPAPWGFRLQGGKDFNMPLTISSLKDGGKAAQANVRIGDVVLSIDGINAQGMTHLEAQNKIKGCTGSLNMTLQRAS

T10: GST-TAX-IP40 PDZ domain fusion protein (human, UniProt Q6B4M5 150-252 (rat entry))
T10 construct: also called TAX40; not shown: glutathione S-transferase encoded by vector pGEX-3X (Pharmacia)
T10 sequence: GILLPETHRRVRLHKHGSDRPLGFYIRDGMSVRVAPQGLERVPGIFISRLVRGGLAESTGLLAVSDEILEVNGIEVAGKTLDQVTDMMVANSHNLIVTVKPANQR

T11: X11β PDZ-GST fusion protein (Rattus norvegicus (Rat), UniProt O35431 560-745)
T11 construct: Order of GST and PDZ part and limits not seen in the excerpts
T11 chain: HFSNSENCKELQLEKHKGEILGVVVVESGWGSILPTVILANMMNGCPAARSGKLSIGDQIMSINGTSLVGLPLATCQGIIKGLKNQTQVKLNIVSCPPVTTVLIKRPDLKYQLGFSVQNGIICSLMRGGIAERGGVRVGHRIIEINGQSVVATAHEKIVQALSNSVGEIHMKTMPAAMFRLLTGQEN

T12: GST-DLG5 (p-dlg) PDZ domain fusion protein (Human, UniProt Q8TDM6 1343-1583)
T12 construct: also called Human discs large protein p-dlg; not shown: glutathione S-transferase encoded by vector pGEX-3X (Pharmacia)
T12 sequence: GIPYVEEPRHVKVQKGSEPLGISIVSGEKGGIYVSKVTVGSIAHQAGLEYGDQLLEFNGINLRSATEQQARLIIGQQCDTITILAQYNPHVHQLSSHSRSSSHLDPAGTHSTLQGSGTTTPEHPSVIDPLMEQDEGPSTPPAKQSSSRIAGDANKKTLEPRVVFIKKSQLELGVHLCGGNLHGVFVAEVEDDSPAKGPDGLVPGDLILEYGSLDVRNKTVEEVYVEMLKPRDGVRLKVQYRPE

T13: GST-CASK PDZ domain fusion protein (Homo sapiens, UniProt O14936 486-575)
T13 construct: also called Homo sapiens CASK protein
T13 sequence: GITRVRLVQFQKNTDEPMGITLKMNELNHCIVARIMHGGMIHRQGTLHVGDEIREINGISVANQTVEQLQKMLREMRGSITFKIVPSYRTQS

T14: GEF PDZ-GST fusion protein (Homo sapiens (Human), UniProt Q8TEU7 293-400)
T14 construct: The label GEF is not explained in the excerpts
T14 sequence: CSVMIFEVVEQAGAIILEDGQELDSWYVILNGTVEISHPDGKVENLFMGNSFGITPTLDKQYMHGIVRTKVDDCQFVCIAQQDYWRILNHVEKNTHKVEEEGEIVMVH

B1: CD97 C-terminal peptide AA14L, biotinylated (peptide)
peptide: Biotin-TSGTGHNQTRALRASESGI
notes: also called CD97 (CD55L)
B2: CC CKR-2 C-terminal peptide AA42L (peptide)
peptide: Biotin-GKGKSIGRAPEASLQDKEGA
notes: Only the last four residues are seen in the excerpts
B3: CC CKR-1R C-terminal peptide AA41L (peptide)
peptide: Biotin-LERVSSTSPSTGEHELSAGF
notes: as for B2
B4: CD49F C-terminal peptide AA12L, biotinylated (peptide)
peptide: Biotin-HKAEIHAQPSDKERLTSDA
notes: also called CD49F (Aform, alpha6)

The binders below were run against T1, GST-cytohesin binding protein PDZ … (assay: A/G assays).

binding result	Binder
no binding	B1
no binding	B2
no binding	B3
no binding	B4

These binders were tested against T2, K559 PDZ-GST fusion protein (assay: A/G assays).

binding result	Binder
no binding	B1
no binding	B2
no binding	B3
no binding	B4

Target: T3, GST-TAX-IP2 PDZ domain fusion protein
Assay: A/G assays

binding result	Binder
no binding	B1
no binding	B2
no binding	B3
no binding	B4

The binders below were run against T4, TAX-IP33 PDZ-GST fusion protein (assay: A/G assays).

binding result	Binder
no binding	B1
no binding	B2
no binding	B3
no binding	B4

The binders below were run against T5, SP short PDZ-GST fusion protein (assay: A/G assays).

binding result	Binder
no binding	B1
no binding	B2
no binding	B3
no binding	B4

Target: T6, GST-mouse syntenin fusion protein
Assay: A/G assays

binding result	Binder
no binding	B1
no binding	B2
no binding	B3
no binding	B4

What follows are binders tested against T7, GST-DVL1 PDZ domain fusion protein (assay: A/G assays).

binding result	Binder
no binding	B1
no binding	B2
no binding	B3
no binding	B4

The binders below were run against T8, GST-KIAA0303 PDZ domain fusion protein (assay: A/G assays).

binding result	Binder
no binding	B1
no binding	B2
no binding	B3
no binding	B4

These binders were tested against T9, GST-LIM protein PDZ domain fusion … (assay: A/G assays).

binding result	Binder
no binding	B1
no binding	B2
no binding	B3
no binding	B4

Each binder was assayed against T10, GST-TAX-IP40 PDZ domain fusion protein (assay: A/G assays).

binding result	Binder
no binding	B1
no binding	B2
no binding	B3
no binding	B4

Target: T11, X11β PDZ-GST fusion protein
Assay: A/G assays

binding result	Binder
no binding	B1
no binding	B2
no binding	B3
no binding	B4

Each binder was assayed against T12, GST-DLG5 (p-dlg) PDZ domain fusion … (assay: A/G assays).

binding result	Binder
no binding	B1
no binding	B2
no binding	B3
no binding	B4

What follows are binders tested against T13, GST-CASK PDZ domain fusion protein (assay: A/G assays).

binding result	Binder
no binding	B1
no binding	B2
no binding	B3
no binding	B4

These binders were tested against T14, GEF PDZ-GST fusion protein (assay: A/G assays).

binding result	Binder
no binding	B1
no binding	B2
no binding	B3
no binding	B4

Reference: patent US20050037969A1 (ARBOR VITA, published 2005)
